Measurements as given in patent publication US20060253917A1 (published 2006).
Each block holds one binder with its values, some of them ahead of it.

How the values were obtained:
OsMADS8 aa 79-248 = target: T1, OsMADS8 aa 79-248 (Oryza sativa, UniProt Q9SAR1 79-248); assay: Y2H; output trait library
T1 construct: prey, AD fusion; also called PN20778
T1 sequence: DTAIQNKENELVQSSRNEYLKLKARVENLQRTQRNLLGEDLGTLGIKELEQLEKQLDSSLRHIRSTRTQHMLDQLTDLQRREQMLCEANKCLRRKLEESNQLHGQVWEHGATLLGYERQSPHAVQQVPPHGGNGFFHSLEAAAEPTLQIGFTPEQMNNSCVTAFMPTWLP
In short: (§1)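 Using an automated, high-throughput yeast two-hybrid assay provided by Myriad Genetics Inc. (Salt Lake City, Utah), protein-protein interactions were detected. Against either the input trait or the output trait rice prey library, a bait clone encoding a defined amino-acid fragment of a rice protein was screened. The encoding sequences of the prey clones that were retrieved were then compared against databases by BLAST to identify the interacting proteins.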

OsMADS1 aa 70-257 = target: T2, OsMADS1 aa 70-257 (Oryza sativa, UniProt A2XDY1 70-257); assay: Y2H; output trait library
T2 construct: prey, AD fusion; also called PN19788
T2 sequence: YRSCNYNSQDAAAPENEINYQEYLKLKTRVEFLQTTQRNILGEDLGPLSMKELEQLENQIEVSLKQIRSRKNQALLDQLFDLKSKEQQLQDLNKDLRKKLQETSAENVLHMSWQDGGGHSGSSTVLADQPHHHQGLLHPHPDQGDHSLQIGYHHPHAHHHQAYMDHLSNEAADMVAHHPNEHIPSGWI
In short: as §1

OsMADS8 aa 75-238 = target: T3, OsMADS8 aa 75-238 (Oryza sativa, UniProt Q9SAR1 75-238); assay: Y2H; output trait library
T3 construct: prey, AD fusion; also called PN20778
T3 sequence: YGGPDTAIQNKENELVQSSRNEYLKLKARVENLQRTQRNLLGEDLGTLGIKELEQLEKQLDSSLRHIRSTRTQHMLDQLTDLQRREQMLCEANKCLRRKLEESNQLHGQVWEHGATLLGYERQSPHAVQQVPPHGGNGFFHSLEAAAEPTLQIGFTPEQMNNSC
In short: as §1

OsMADS45 aa 83-234 = target: T4, OsMADS45 aa 83-234 (Oryza sativa, UniProt P0C5B0 83-234); assay: Y2H; output trait library
T4 construct: prey, AD fusion; also called PN20231
T4 sequence: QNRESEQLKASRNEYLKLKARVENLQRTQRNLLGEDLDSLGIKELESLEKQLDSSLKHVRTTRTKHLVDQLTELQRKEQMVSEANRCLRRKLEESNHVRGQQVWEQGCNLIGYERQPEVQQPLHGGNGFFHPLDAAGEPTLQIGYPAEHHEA
In short: as §1

OsRAP1B aa 1-179 = target: T5, OsRAP1B aa 1-179 (Oryza sativa, UniProt Q10CQ1 1-179); assay: Y2H; output trait library
T5 construct: prey, AD fusion; also called PN20232
T5 sequence: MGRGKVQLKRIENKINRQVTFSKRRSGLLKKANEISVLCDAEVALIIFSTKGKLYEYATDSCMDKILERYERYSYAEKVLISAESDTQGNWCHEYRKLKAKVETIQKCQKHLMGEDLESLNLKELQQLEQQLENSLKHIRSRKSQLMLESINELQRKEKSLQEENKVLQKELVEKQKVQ
In short: as §1

OsMADS45 aa 56-249 = target: T6, OsMADS45 aa 56-249 (Oryza sativa, UniProt P0C5B0 56-249); assay: Y2H; output trait library
T6 construct: prey, AD fusion; also called PN20231
T6 sequence: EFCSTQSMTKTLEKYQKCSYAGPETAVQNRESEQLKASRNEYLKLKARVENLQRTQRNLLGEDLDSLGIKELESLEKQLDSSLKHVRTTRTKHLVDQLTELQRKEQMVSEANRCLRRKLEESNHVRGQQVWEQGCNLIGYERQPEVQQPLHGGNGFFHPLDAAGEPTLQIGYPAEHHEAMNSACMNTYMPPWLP
In short: as §1

OsMADS3 aa 70-170 = target: T7, OsMADS3 aa 70-170 (Oryza sativa, UniProt Q40704 70-170); assay: Y2H; input trait library
T7 construct: bait, Gal4 DBD fusion; also called PN20700
T7 sequence: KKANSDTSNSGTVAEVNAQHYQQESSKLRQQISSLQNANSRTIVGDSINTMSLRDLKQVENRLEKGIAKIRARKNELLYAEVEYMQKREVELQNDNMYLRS
In short: as §1

binding result (OsMADS8 aa 79-248): binds | binding result (OsMADS1 aa 70-257): binds | binding result (OsMADS8 aa 75-238): binds | binding result (OsMADS45 aa 83-234): binds | binding result (OsRAP1B aa 1-179): binds
B1: OsMADS6 aa 50-200 (other)
chain: SRGKLYEFGSAGITKTLERYQHCCYNAQDSNNALSETQSWYHEMSKLKAKFEALQRTQRHLLGEDLGPLSVKELQQLEKQLECALSQARQRKTQLMMEQVEELRRKERQLGEINRQLKHKLEVEGSTSNYRAMQQASWAQGAVVENGAAYV
notes: bait, Gal4 DBD fusion; also called PN20233

binding result (OsMADS45 aa 56-249): binds
B2: OsFDRMADS8 aa 60-160 (other)
chain: APSLQKTIDRYKAYTKDHVNNKTIQQDIQQVKDDTLGLAKKLEALDESRRKILGENLEGCSIEELRGLEMKLEKSLHNIRLKKTELLERQIAKLKEKERTL
notes: bait, Gal4 DBD fusion; also called PN20698

binding result (OsMADS3 aa 70-170): binds
B3: OsPN31165 aa 58-252 (other)
chain: YAREMERLSAKESLLLAFRDAGGFESLVSGKTTGMQKIDVNERIVGLERLNPTPRPTTSPFLEGRWNFEWFGDSSPGALAARLLFERSPTTVAHFTGLDVLIKDGYSKISSNVKFLNTVQSKFLLTTQLSVEGPIRMKEEYVEGLIEIPRIREETLPDQLKGFFGQTAGALQQLPAPIRDAVSEGIKLPLNGMFQ
notes: prey, AD fusion; also called Novel protein PN31165
